Values quoted from earlier work as cited in patent US20050181485A1, “Cellulose digesting enzyme gene and utilization of the gene” (priority 2002, published 2005).
Where two headings read alike, the source gives them in different places.

Conditions: known cellobiose dehydrogenases

B1: Phanerochaete chrysosporium: known cellobiose dehydrogenase reported by Henriksson et al. (protein, UniProt Q01738 19-773, looked up)
Cellobiose dehydrogenase: QSASQFTDPTTGFQFTGITDPVHDVTYGFVFPPLATSGAQSTEFIGEVVAPIASKWIGIALGGAMNNDLLLVAWANGNQIVSSTRWATGYVQPTAYTGTATLTTLPETTINSTHWKWVFRCQGCTEWNNGGGIDVTSQGVLAWAFSNVAVDDPSDPQSTFSEHTDFGFFGIDYSTAHSANYQNYLNGDSGNPTTTSTKPTSTSSSVTTGPTVSATPYDYIIVGAGPGGIIAADRLSEAGKKVLLLERGGPSTKQTGGTYVAPWATSSGLTKFDIPGLFESLFTDSNPFWWCKDITVFAGCLVGGGTSVNGALYWYPNDGDFSSSVGWPSSWTNHAPYTSKLSSRLPSTDHPSTDGQRYLEQSFNVVSQLLKGQGYNQATINDNPNYKDHVFGYSAFDFLNGKRAGPVATYLQTALARPNFTFKTNVMVSNVVRNGSQILGVQTNDPTLGPNGFIPVTPKGRVILSAGAFGTSRILFQSGIGPTDMIQTVQSNPTAAAALPPQNQWINLPVGMNAQDNPSINLVFTHPSIDAYENWADVWSNPRPADAAQYLANQSGVFAGASPKLNFWRAYSGSDGFTRYAQGTVRPGAASVNSSLPYNASQIFTITVYLSTGIQSRGRIGIDAALRGTVLTPPWLVNPVDKTVLLQALHDVVSNIGSIPGLTMITPDVTQTLEEYVDAYDPATMNSNHWVSSTTIGSSPQSAVVDSNVKVFGTNNLFIVDAGIIPHLPTGNPQGTLMSAAEQAAAKILALAGGP
Isoelectric point: 4.2
Optimal pH: 5.0
Optimal temperature: 50 °C
Isoelectric point (listed as cellobiose dehydrogenase derived from Phanerochaete chrysosporium): about 4.2
